Data on one molecule can be found in US9850293B2, “Targeting trastuzumab-resistant HER2+ breast cancer with a HER3-targeting nanoparticle” (priority 2014, dated 2017).

As usually defined, the EC50 is the concentration needed to bring the measured effect to its halfway point. High values mean a need for much substance, low ones an effect from little substance.

Entries after “also recorded” stand apart in the source; their conditions may differ.

In one data set the test system is SKOV3. Kind of data set: Cytotoxicity on cell lines (HerDox dose curves). Type of data set: cell-based, human. To be noted: concentration yielding 50% reduction in cell survival, mean ± SD.
The nature of data set [1]: HerDox stability in cell culture media (agarose gel). Type of data set: in vitro ADME. To be noted: serum-containing media, 37° C. On the procedure:
FIG. 9 (C) illustrates that there is stability in cell culture. Aliquots of culture media containing HerDox (after incubation for the indicated times at 37° C.) were electrophoresed on a 2% agarose gel. HerDox incubated at 37° C. in HEPES-buffered saline, lacking serum, was processed in parallel. Dox fluorescence was visualized by UV excitation. Free Dox (Dox alone) is not retained in the gel whereas Dox incorporated in HerDox is. To align fluorescent bands with HerPBK10 and assess loading per lane, the gel was stained with Coomassie blue, which also identified serum protein from culture media samples.
By three days, HerDox reduced HER2+ cell numbers by over 75% whereas HER2− cell survival was unaffected (FIG. 7). […] These findings emphasize the importance of targeting by showing that the untargeted drug affects nontarget (i.e. HER2−) cells. […] To test receptor targeting, the inventors used free heregulin ligand (Her or eHRG) as a competitive inhibitor. […] As a final in vitro challenge, the inventors tested whether HerDox induces toxicity specifically to HER2+ cells in a mixed culture of HER2+ and HER2− breast cancer cells. To do this, the inventors produced a HER2− cell line tagged with green fluorescent protein (GFP) for cell identification in the mixed culture (FIG. 9-A). […]

Data set [2] relates to BT474 trastuzumab-resistant cells. Kind of data set: Tumor cell killing in culture. On the procedure:
FIG. 21 depicts graph that show the results of the administration of HerDox on various cells. […] N=3. *=p<0.05 compared to parental. […] N=3.
N=3. *, p<0.05 compared to parental. […] N=3. […] Parental and resistant cell lines were treated with HerDox−/+HER3 blocking peptide (ErbB3 human; Prospec), and tested for cell survival 48 hours later. […] Treatments were compared to mock (saline)-treatment. […] N=3. *, p<0.05 compared to parental. […] N=3.
Parental cell lines were pre-treated with 0.5 mg/mL Tz for 24 hours before testing these cells for surface HER3 levels. […] Parental cell lines were pre-treated with 0.5 mg/mL Tz for 24 hours before testing these cells for HerPBK10 binding. […] SKBR3 Parental cells were treated with Tz at indicated concentrations (see upper X-axes) 4 and 24 hours before HerDox treatment and assayed for survival at 48-72 h after treatment. N=3. […] SK-474 Parental cells were treated with Tz at indicated concentrations (see upper X-axes) 4 and 24 hours before HerDox treatment and assayed for survival at 48-72 h after treatment. N=3. […] MDA-MB-435 non-resistant cells were treated with Tz at indicated concentrations (see upper X-axes) 4 and 24 hours before HerDox treatment and assayed for survival at 48-72 h after treatment. […] N=3. […] Tz-resistant cells were treated with Tz at indicated concentrations (see upper X-axes) 4 and 24 hours before HerDox treatment and assayed for survival at 48-72 h after treatment. N=3.
N=3. *, p<0.05 compared to parental. […] N=3. […] N=3. […] Tumor volumes were measured by calipers. […] Tumor volumes were measured by calipers. […]

A further data set concerns JIMT-1 cell line. Kind of data set: Tumor cell killing in culture, pre-existing resistance. Type of data set: cell-based, human. To be noted: JIMT-1, dose-dependent, maximum. On the procedure:
N=3. *, p<0.05 compared to parental. […] N=3. […] Treatments were compared to mock (saline)-treatment. […] N=3. *, p<0.05 compared to parental. […] N=3.
The efficacy of HerDox was also examined on a cell line with pre-existing resistance.
The contribution of HER3 to targeted toxicity was evaluated by assessing whether pre-adsorbing HerDox with a peptide comprising the ligand-binding domain of HER3 blocked cytotoxicity.

For data set [3], the system named is parental and resistant cell lines (JIMT-1, BT-474, SKBR3). The experiment in a line: HerDox −/+ HER3 blocking peptide, cell survival. Type of data set: cell-based, human. To be noted: equimolar HER3:HerPBK10, 48 hours. The protocol:
(A)_-illustrates that resistance enhances HerDox toxicity. […] N=3. *, p<0.05 compared to parental. (B)_illustrates that resistance enhances HerDox toxicity. […] N=3. (C) illustrates contribution of HER3 to targeted toxicity. […] Treatments were compared to mock (saline)-treatment. […] N=3. *, p<0.05 compared to parental. […] N=3.
The contribution of HER3 to targeted toxicity was evaluated by assessing whether pre-adsorbing HerDox with a peptide comprising the ligand-binding domain of HER3 blocked cytotoxicity. […] In contrast, HerDox yielded dose-dependent cell death and eliminated up to 90% of the cells (FIG. 27-E).

B1: HerDox: non-covalent complex of HerPBK10, double-stranded oligonucleotide and intercalated Dox (Unit A+Unit B+Unit C) (conjugate)
chain: SHLVKCAEKEKTFCVNGGECFMVKDLSNPSRYLCKCQPGFTGARCTENVPMKVQNQEKAEELYQKMRRAAMYEEGPPPSYESVVSAAPVAAALGSPFDAPLDPPFVPPRYLRPTGGRNSIRYSELAPLFDTTRVYLVDNKSTDVASLNYQNDHSNFLTTVIQNNDYSPGEASTQTINLDDRSHWGGDLKTILHTNMPNVNEFMFTNKFKARVMVSRLPTKDNQVELKYEWVEFTLPEGNYSETMTIDLMNNAIVEHYLKVGRQNGVLESDIGVKFDTRNFRLGFDPVTGLVMPGVYTNEAFHPDIILLPGCGVDFTHSRLSNLLGIRKRQPFQEGFRITYDDLEGGNIPALLDVDAYQASLKDDTEQGGGGAGGSNSSGSGAEENSNAAAAAMQPVEDMNDHAIRGDTFATRAEEKRAEAEAAAEAAAPAAQPEVEKPQKKPVIKPLTEDSKKRSYNLISNDSTFTQYRSWYLAYNYGDPQTGIRSWTLLCTPDVTCGSEQVYWSLPDMMQDPVTFRSTRQISNFPVVGAELLPVHSKSFYNDQAVYSQLIRQFTSLTHVFNRFPENQILARPPAPTITTVSENVPALTDHGTLPLRNSIGGVQRVTITDARRRTCPYVYKALGIVSPRVLSSRTFKKKKKKKKKK
modifications: left off: small tags and cut ends
Molecule B1 came in with a concentration for a half-maximal effect (EC50) in the data set with SKOV3 of 0.18 ± 0.03 µM. The “loss of Dox fluorescence from conjugate in culture media” value in data set [1] is recorded as “no such loss”. In data set [2] (48-72 h after treatment), the “effect on BT474 resistant cells” value is “completely killed off; also recorded: complete cell death at all HerDox concentrations tested; also recorded: effectively eliminated”. In data set [2] (Tz-resistant BT474), the “cytotoxicity at five-fold lower HerDox concentrations with trastuzumab pre-treatment” value is given as “further enhanced cytotoxicity” and the “effect on cell survival at five-fold lower HerDox concentrations” value is recorded as “still had a potent effect on cell survival”. In the data set with JIMT-1 cell line, the cells killed entry is recorded as “up to 90%”. Further, the “cell death after pre-adsorbing with HER3 peptide” value in data set [3] is “inhibited by the HER3 peptide”.
